Experimental data published in doi:10.1101/2021.06.23.449282.

Target: directed activation strategy TMPRSS2 (activated TMPRSS2 ectodomain, residues 109-492, DDDDK255 activation motif) (human) (UniProt O15393)
Assay: enzyme inhibition assay

Work on “sunflower trypsin inhibitor-1 (from UniProt Q4GWU5 40-56) (peptide)” yielded a Ki of 400 nM.
